Entries after “also recorded” stand apart in the source; their conditions may differ. Where a SMILES comes first, the peptide text is derived from it. [ ]: non-standard residue; d: D form.
Key:
[1] = tested on: PlcR regulon (plcA promoter-lacZ fusion); test: Competition studies of PapR7-derived peptides with endogenous PapR, β-galactosidase (lacZ reporter) assay; type: cell-based, B. thuringiensis 407 Cry- plcA'Z (Bt A'Z); conditions: Bt A'Z; for reduction of plcA'Z activity: 2.5 μM peptide, added at late-exponential phase (OD600 1.8 ± 0.1), normalized to untreated cells, mean; for reduction of plcA'Z activity / effect on plcA'Z activation / PlcR regulon activity after 24 h (in words) / effect on plcA'Z activation at low cell density (in words): n = 9; for IC50: late-exponential phase (OD600 1.8 ± 0.1), competition with endogenous PapR, mean ± SEM, SEM, read-out: IC50, lacZ-based reporter assay; for effect on plcA'Z activation / PlcR regulon activity after 24 h (in words) / effect on plcA'Z activation at low cell density (in words): 10 μM peptide; for effect on plcA'Z activation / PlcR regulon activity after 24 h (in words): added at OD600 0.1 ± 0.03, harvested after 24 h; for effect on plcA'Z activation at low cell density (in words): added at OD600 0.1 ± 0.03, quantified after 2.5 h; for class of inhibitory activity throughout the competition studies: plcA'lacZ, summary of the competition studies
Experimental: Bacterial strains used in this study: B. thuringiensis 407 Cry ^- plcA′Z (Bt A’Z) and the PapR null-mutant 407 Cry ^- ΔpapR plcA’Z (Bt ΔpapR A’Z) strains, containing a transcriptional fusion between the promoter of plcA and the lacZ reporter gene (as described previously; [Gominet et al., 2001]; [Slamti and Lereclus, 2002]); B. cereus strain ATCC 14579 ([Ivanova et al., 2003]). Unless otherwise noted, cells were grown in modified LB medium (16 g/L tryptone, 8 g/L yeast extract, 5 g/L NaCl) at 37°C and stored at −80°C in LB containing 25% glycerol. Kanamycin (200 μg/mL) was used for the selection of B. thuringiensis.
Bt A’Z cells were grown overnight in LB medium. The cells were diluted 10^–3 in modified LB to a final volume of 1 L and incubated at 37°C with shaking (200 rpm) until the end of the lag or late-exponential of bacterial growth (OD600 0.1 ± 0.03; 1.8 ± 0.1, respectively). Different concentrations of synthetic peptides were added to 2 ml aliquots of culture and incubated for various times (1–24 h) before centrifugation (Eppendorf centrifuge R5810, 4000 rpm for 5 min) and quantification of β-galactosidase activity.
β-galactosidase activity was measured as described previously ([Yang et al., 2017]), with minor modifications. Briefly, 200 μL aliquots from 2 ml treated cultures were added in triplicate to a clear 96-well microtiter plate, and then OD600 was measured and β-galactosidase activity was assayed. The final results were reported as percentage of activation, which is the ratio between the Miller units obtained after addition of the PapR7 analogs. In Bt ΔpapR A’Z strain, the plcA promoter activity was very low and considered as a baseline. In Bt A’Z strain, the untreated bacteria were considered as 100% of activation and the results were normalized accordingly. Each assay was repeated at least three times.

B. cereus ATCC 14579 = type: cell-based, Bacillus cereus; conditions: n = 9; for IC50: supernatant of B. cereus ATCC 14579 cultures treated at OD600 0.1 ± 0.03 for 2.5 h, 1% human red blood cells, 30 min, 37°C, absorbance at 420 nm, mean ± SEM, SEM, read-out: IC50, hemolytic assay; for reduction of hemolytic activity: 10 μM peptide, B. cereus ATCC 14579 treated at OD600 0.1 ± 0.03, human red blood cells, normalized to untreated
Experimental: Bt A’Z or B. cereus ATCC 14579 cells were grown overnight in LB medium. The cells were diluted 10^–3 in modified LB to a final volume of 1 liter and incubated at 37°C with shaking (200 rpm) until the end of the lag phase of bacterial growth (OD600 0.1 ± 0.03). Different concentrations of synthetic peptides were added to 2 ml aliquots of culture and incubated for 2.5 h before centrifugation (Eppendorf centrifuge R5810, 4000 rpm for 5 min), separation and filtration (0.2 μm filter) of the supernatants of the treated cultures. Analyses of hemolytic activity were conducted as previously described using human red blood cells ([Tal-Gan et al., 2013b]; [Lobel et al., 2015]). Bacterial supernatants were serially diluted in Tris-buffered saline (pH 7.2, 10 mM Tris–HCl, 155 mM NaCl) with 1% human red blood cells (hRBC) suspension and were incubated for 30 min at 37°C. Hemolytic activities were measured by monitoring the absorbance at 420 nm.

[2] = biological target: PlcR of B. cereus ATCC 14579 (B. cereus (endogenous in strain ATCC 14579))
[3] = biological target: PlcR of B. thuringiensis 407 Cry- (B. thuringiensis (endogenous in strain 407 Cry- plcA'Z))
[4] = biological target: PlcR of B. cereus ATCC 14579 (B. cereus (endogenous in strain ATCC 14579)); remark: listed apart in the source
[5] = biological target: PlcR of B. cereus ATCC 14579 (B. cereus (endogenous in strain ATCC 14579)); remark: listed apart in the source
[6] = biological target: PlcR of B. thuringiensis 407 Cry- (B. thuringiensis (endogenous in strain 407 Cry- plcA'Z)); remark: listed apart in the source
[7] = biological target: PlcR of B. thuringiensis 407 Cry- (B. thuringiensis (endogenous in strain 407 Cry- plcA'Z)); remark: listed apart in the source

CC(C)C[C@H](NC(=O)[C@H](CC(=O)O)NC(=O)[C@H](C)N)C(=O)N1CCC[C@H]1C(=O)N[C@@H](Cc1ccccc1)C(=O)N[C@H](CCC(=O)O)C(=O)N[C@@H](Cc1ccccc1)C(N)=O [PapR7-dE6, reference compound] (H-ADLPF[dE]F-NH2; N-terminus assumed)
reduction of plcA'Z activity [1]: 65%
IC50 [1]: 0.977 ± 0.042 µM
IC50 (B. cereus ATCC 14579): 1.05 ± 0.089 µM

CC(C)C[C@H](NC(=O)[C@H](CC(=O)O)NC(=O)[C@H](C)N)C(=O)N1CCC[C@H]1C(=O)N[C@@H](Cc1ccccc1)C(=O)N[C@H](CCC(=O)O)C(=O)N[C@@H](C)C(N)=O [PapR7-dE6:F7A] (H-ADLPF[dE]A-NH2; N-terminus assumed)
reduction of plcA'Z activity [1]: 65%
effect on plcA'Z activation / PlcR regulon activity after 24 h (in words) [1]: blocked plcA’Z activation; also recorded: blocked the PlcR regulon activity
effect on plcA'Z activation at low cell density (in words) [1]: blocked plcA’Z activation
IC50 [1]: 2.57 ± 0.203 µM
class of inhibitory activity throughout the competition studies [1]: very potent inhibitors
IC50 (B. cereus ATCC 14579): 2.5 ± 0.212 µM

CC(C)C[C@H](NC(=O)[C@H](CC(=O)O)NC(=O)[C@H](C)N)C(=O)N1CCC[C@H]1C(=O)N[C@@H](Cc1ccccc1)C(=O)N[C@H](CCC(=O)O)C(=O)N[C@H](Cc1ccccc1)C(N)=O [PapR7-dE6:dF7] (H-ADLPF[dE][dF]-NH2; N-terminus assumed)
reduction of plcA'Z activity [1]: 71%
effect on plcA'Z activation / PlcR regulon activity after 24 h (in words) [1]: blocked plcA’Z activation; also recorded: blocked the PlcR regulon activity
effect on plcA'Z activation at low cell density (in words) [1]: blocked plcA’Z activation
IC50 [1]: 1.68 ± 0.17 µM
class of inhibitory activity throughout the competition studies [1]: very potent inhibitors
IC50 (B. cereus ATCC 14579): 1.38 ± 0.117 µM

CC(C)C[C@H](NC(=O)[C@H](CC(=O)O)NC(=O)[C@H](C)N)C(=O)N1CCC[C@H]1C(=O)N[C@@H](Cc1ccccc1)C(=O)N[C@@H](CCC(=O)O)C(=O)N[C@H](Cc1ccccc1)C(N)=O [PapR7-dF7, reference compound] (H-ADLPFE[dF]-NH2; N-terminus assumed)
reduction of plcA'Z activity [1]: 63%
IC50 [1]: 1.22 ± 0.072 µM
IC50 (B. cereus ATCC 14579): 3.04 ± 0.206 µM

ADLAFEA [PapR7-P4A:F7A, second-generation PapR7-derived peptide ADLAFEA]
reduction of plcA'Z activity [1]: approximately 40%
effect on plcA'Z activation at low cell density (in words) [1]: drastic reduction in plcA’Z activity
class of inhibitory activity throughout the competition studies [1]: median to high inhibitory activities
reduction of hemolytic activity (B. cereus ATCC 14579): ~60%

ADLAFEdF [PapR7-P4A:dF7, second-generation PapR7-derived peptide ADLAFEdF]
reduction of plcA'Z activity [1]: approximately 40%
effect on plcA'Z activation at low cell density (in words) [1]: drastic reduction in plcA’Z activity
class of inhibitory activity throughout the competition studies [1]: median to high inhibitory activities
reduction of hemolytic activity (B. cereus ATCC 14579): approximately 83%

PapR7-E6A:F7A (peptide)
reduction of the hemolytic activity (human red blood cells) of supernatants of B. cereus ATCC 14579 cultures treated with 10 μM peptide; the pair that is blocked: native PapR with PlcR [2]: 60%
reduction of plcA'Z (β-galactosidase) activity in Bt A'Z cells, 2.5 μM peptide added at late-exponential phase; the pair that is blocked: endogenous PapR with PlcR [3]: 40%

PapR7-E6A:dF7 (peptide)
inhibition of the hemolytic activity (human red blood cells) of supernatants of B. cereus ATCC 14579 cultures treated with 10 μM peptide; the pair that is blocked: native PapR with PlcR [4]: 83%
reduction of plcA'Z (β-galactosidase) activity in Bt A'Z cells, 2.5 μM peptide added at late-exponential phase; the pair that is blocked: endogenous PapR with PlcR [3]: 40%

PapR7-F7A (peptide)
IC50 of inhibition of the hemolytic activity (human red blood cells) of supernatants of treated B. cereus ATCC 14579 cultures; the pair that is blocked: native PapR with PlcR [5]: 2.73 µM
reduction of plcA'Z (β-galactosidase) activity in Bt A'Z cells, 2.5 μM peptide added at late-exponential phase; the pair that is blocked: endogenous PapR with PlcR [3]: 70%
IC50 of inhibition of plcA'Z (β-galactosidase) activity in Bt A'Z cells, lacZ-based reporter assay; the pair that is blocked: endogenous PapR with PlcR [6]: 1.68 µM

PapR7-P4A (peptide)
IC50 of inhibition of the hemolytic activity (human red blood cells) of supernatants of treated B. cereus ATCC 14579 cultures; the pair that is blocked: native PapR with PlcR [5]: 4.39 µM

PapR7-P4A:F7A (peptide)
reduction of the hemolytic activity (human red blood cells) of supernatants of B. cereus ATCC 14579 cultures treated with 10 μM peptide; the pair that is blocked: native PapR with PlcR [2]: 60%
reduction of plcA'Z (β-galactosidase) activity in Bt A'Z cells, 2.5 μM peptide added at late-exponential phase; the pair that is blocked: endogenous PapR with PlcR [3]: 40%

PapR7-P4A:dE6 (peptide)
reduction of plcA'Z (β-galactosidase) activity in Bt A'Z cells, 2.5 μM peptide added at late-exponential phase; the pair that is blocked: endogenous PapR with PlcR [3]: 40%

PapR7-P4A:dE6:F7A (peptide)
IC50 of inhibition of the hemolytic activity (human red blood cells) of supernatants of treated B. cereus ATCC 14579 cultures; the pair that is blocked: native PapR with PlcR [5]: 1.99 µM
reduction of plcA'Z (β-galactosidase) activity in Bt A'Z cells, 10 μM peptide added at end of lag phase (OD600 0.1); the pair that is blocked: endogenous PapR with PlcR [7]: 75%
reduction of plcA'Z (β-galactosidase) activity in Bt A'Z cells, 2.5 μM peptide added at late-exponential phase; the pair that is blocked: endogenous PapR with PlcR [3]: 40%

PapR7-P4A:dE6:dF7 (peptide)
IC50 of inhibition of the hemolytic activity (human red blood cells) of supernatants of treated B. cereus ATCC 14579 cultures; the pair that is blocked: native PapR with PlcR [5]: 2.14 µM
reduction of plcA'Z (β-galactosidase) activity in Bt A'Z cells, 10 μM peptide added at end of lag phase (OD600 0.1); the pair that is blocked: endogenous PapR with PlcR [7]: 75%
reduction of plcA'Z (β-galactosidase) activity in Bt A'Z cells, 2.5 μM peptide added at late-exponential phase; the pair that is blocked: endogenous PapR with PlcR [3]: 40%

PapR7-P4A:dF7 (peptide)
inhibition of the hemolytic activity (human red blood cells) of supernatants of B. cereus ATCC 14579 cultures treated with 10 μM peptide; the pair that is blocked: native PapR with PlcR [4]: 83%
reduction of plcA'Z (β-galactosidase) activity in Bt A'Z cells, 2.5 μM peptide added at late-exponential phase; the pair that is blocked: endogenous PapR with PlcR [3]: 40%

PapR7-dE6 (peptide)
IC50 of inhibition of the hemolytic activity (human red blood cells) of supernatants of treated B. cereus ATCC 14579 cultures; the pair that is blocked: native PapR with PlcR [5]: 1.05 µM
reduction of plcA'Z (β-galactosidase) activity in Bt A'Z cells, 2.5 μM peptide added at late-exponential phase; the pair that is blocked: endogenous PapR with PlcR [3]: 65%
IC50 of inhibition of plcA'Z (β-galactosidase) activity in Bt A'Z cells, lacZ-based reporter assay; the pair that is blocked: endogenous PapR with PlcR [6]: 0.977 µM

PapR7-dE6:F7A (peptide)
IC50 of inhibition of the hemolytic activity (human red blood cells) of supernatants of treated B. cereus ATCC 14579 cultures; the pair that is blocked: native PapR with PlcR [5]: 2.5 µM
reduction of plcA'Z (β-galactosidase) activity in Bt A'Z cells, 2.5 μM peptide added at late-exponential phase; the pair that is blocked: endogenous PapR with PlcR [3]: 65%
IC50 of inhibition of plcA'Z (β-galactosidase) activity in Bt A'Z cells, lacZ-based reporter assay, late-exponential phase; the pair that is blocked: endogenous PapR with PlcR [6]: 2.57 µM

PapR7-dE6:dF7 (peptide)
IC50 of inhibition of the hemolytic activity (human red blood cells) of supernatants of treated B. cereus ATCC 14579 cultures; the pair that is blocked: native PapR with PlcR [5]: 1.38 µM
reduction of plcA'Z (β-galactosidase) activity in Bt A'Z cells, 2.5 μM peptide added at late-exponential phase; the pair that is blocked: endogenous PapR with PlcR [3]: 71%
IC50 of inhibition of plcA'Z (β-galactosidase) activity in Bt A'Z cells, lacZ-based reporter assay, late-exponential phase; the pair that is blocked: endogenous PapR with PlcR [6]: 1.68 µM

PapR7-dF7 (peptide)
IC50 of inhibition of the hemolytic activity (human red blood cells) of supernatants of treated B. cereus ATCC 14579 cultures; the pair that is blocked: native PapR with PlcR [5]: 3.04 µM
reduction of plcA'Z (β-galactosidase) activity in Bt A'Z cells, 2.5 μM peptide added at late-exponential phase; the pair that is blocked: endogenous PapR with PlcR [3]: 63%
IC50 of inhibition of plcA'Z (β-galactosidase) activity in Bt A'Z cells, lacZ-based reporter assay; the pair that is blocked: endogenous PapR with PlcR [6]: 1.22 µM
